Laboratory results as given in patent US20110189205A1 (UNIVERSITY OF ROCHESTER, published 2011).
No end group written: not given here. Alexa488 = Alexa488 dye (single fluorescent dye molecule)

Biological target: T1, CGRP receptor on rat CNS1 glioma cells (rat, UniProt Q63118 24-464; Q9JJ74 27-148)
T1 construct: whole, on cells; Endogenous receptor; also called CGRP receptors of CNS1 glioma cells
Assay: fluorescence microscopy, 30 nM FL-CGRP on CNS1 cells
Procedure: FIG. 13 is a panel of microscopy images illustrating that FL-CGRP binds to CNS1 glioma cells. CNS1 cells were incubated with 30 nM FL-CGRP for 30 minutes, and imaged using phase-contrast microscopy (right, upper and lower panels) and fluorescent microscopy for FL-CGRP (left, upper and lower panels).

T1 sequence (Q63118 24-464, chain 1 of 2): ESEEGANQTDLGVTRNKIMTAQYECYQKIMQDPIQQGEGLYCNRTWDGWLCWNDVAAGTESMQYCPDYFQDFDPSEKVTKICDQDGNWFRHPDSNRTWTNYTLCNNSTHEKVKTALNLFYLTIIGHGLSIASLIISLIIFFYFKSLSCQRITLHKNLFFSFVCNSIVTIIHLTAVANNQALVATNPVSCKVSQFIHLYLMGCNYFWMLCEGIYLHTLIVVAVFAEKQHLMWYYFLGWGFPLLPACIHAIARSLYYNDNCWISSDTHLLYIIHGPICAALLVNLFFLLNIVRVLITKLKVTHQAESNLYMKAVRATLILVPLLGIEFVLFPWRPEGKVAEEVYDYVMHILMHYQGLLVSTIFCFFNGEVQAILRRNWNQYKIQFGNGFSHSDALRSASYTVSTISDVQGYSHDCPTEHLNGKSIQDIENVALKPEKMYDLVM
T1 sequence (Q9JJ74 27-148, chain 2 of 2): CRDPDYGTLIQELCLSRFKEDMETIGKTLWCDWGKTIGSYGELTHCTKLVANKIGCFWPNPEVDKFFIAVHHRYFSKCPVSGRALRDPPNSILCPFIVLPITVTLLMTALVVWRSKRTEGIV

binding result: binds
B1: fluorescently-labeled CGRP (FL-CGRP): rat CGRP with a single Alexa488 dye on lysine 24 (peptide, UniProt P01256 83-119, looked up)
peptide: SCNTATCVTHRLAGLLSRSGGVVK(Alexa488)DNFVPTNVGSEAF
modifications: ends and bridges not checked
notes: mature; the peptide itself is the mature 37-mer; also called single-labeled FL-CGRP
